Data as given in the nanobody polyreactivity screen of Harvey et al. (2022).

Experiment: yeast display, Sf9 membrane polyspecificity reagent, FACS + sequencing; frameworks hold sequencing errors
Outline: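 Galactose induction of a Saccharomyces cerevisiae BJ5465 synthetic nanobody display library ran 36–48 hours. The cells were then stained for 1 hour at 4 °C with 10% biotinylated, detergent-solubilized Sf9 membrane reagent, pulled down on streptavidin microbeads and FACS-sorted into low and high (top ~1%) gates on expression and reagent-binding fluorescence. Labels for polyreactivity follow the gate of origin.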

Sequence	polyreactivity (PSR sort gate)
QVQLVESGGGLVQEGGSLRLSCAASGSHFTRYVMGWYRPAPGKERELVAAITTGGSTYYADSVKGRFTISLDNAKNTVYLQMNSLKPEDTAVYYCAADRRTVSYKYNYWGQGTQVTVSS	high polyreactivity
QVQLVESGGGLVQEGGSLRLSCAASGSIFGVYTMGWYRPEPGKERELVAAINWGGTSTYYADSVKGRFTISRDNAKNTVYLQMNSLKPEDTAVYYCNAERRRRYPYNYWGHGTQVTVSS	high polyreactivity
QVQLVESGGGLVQEGGSLRLSCAASGSIFKQYAMGWYRQAPGKERELVAAISYSGGTTYYADSVKGRFTISRDNAKNTVYLQMNSMKPEDTAVYYCAAEWWILSYRFDYWGQGTQVTVSS	high polyreactivity
QVQLVESGGGLVQEGGSLRLSCAASGSIFNTYAMGRYRQAPGKEREMVAGITKTGSRTYYADSVKGRFTISRDNAKNTVYLQIHILKPEDTAVYYCNARIWPRSYRYDYWGQGTQVTVSS	high polyreactivity
QVQLVESGGGLVQEGGSLRLSCAASGSIFSTYVMGWYRQAPGKERELVAAISRRGGSTYYADSVKGRFTISRDNAKNTVYLQMNSLKPEDTAVYYCAADGTVGRRDYWGQGTQVTVSS	high polyreactivity
QVQLVESGGGLVQEGGSLRLSCAASGSIFWPNAMGWYRQAPGKERELVAAISWGTGSTYYADSVKGRFTISRDNAKNTVYLQINSLKPEDSAVYYCNAEYVVAFGYQYGEYDYWGQGTQVTVSS	low polyreactivity
QVQLVESGGGLVQEGGSLRLSCAASGSLFDVYAMGWYRQAPGKERELVAAISSSGSTYYADSVKGRFTISRDNAKNTVYLQMNSLKPEDTAVYYCAADQADDDDYYYWGQGTQVTVSS	low polyreactivity
QVQLVESGGGLVQEGGSLRLSCAASGSTFRRNAMGWYRQAPGKERELVAAISTSGGTTYYADSVKGRFTISRDYAKNTVYLQMNSLKPEDTAVYYCAAGGKKRDDYWGQGTQVTVSS	high polyreactivity
QVQLVESGGGLVQEGGSLRLSCAASGSTFSFYAMGWYRQAPGKERELVAAIDSGGRTKYADSVKGRFTISRDNAKNTVYLQMNSLKPEDSEVYYCGAVFRGWWLYDYWGKGTQVTVSS	low polyreactivity
QVQLVESGGGLVQEGGSLRLSCAASGSTFVHYDMGWYRQAPGKERELVAGITDTDNHELRRLCEGRFTISRDKAKNTVYLQMNSLKPEDTAVYYCNADDTYYPLGGITGYDYWGQGTQVTVSS	low polyreactivity
QVQLVESGGGLVQEGGSLRLSCAASGYIFKYYAMGWYRQAPGKERELVAAIRYSGGITYYADSVKGRFTISRDNAKNTVYLQMQSLKPEDTAVSYCAADYIITYRSGRREYVYWGQGTQVTVSS	high polyreactivity
QVQLVESGGGLVQEGGSLRLSCAASGYIFYEYAMGWYRQAPGKERELVAAISYSGGSTYYADSVKGRFTISRDNAKNTVYLQMNSLKPEDTAVYYCAAVGSVRYREGYDYWGQGSQVTVSS	high polyreactivity
QVQLVESGGGLVQEGGSLRLSCAATGLTFVYYEMGWYRQAPGKERELVADITYIGTSTYYADSVKGRFTISLDNAKNTVYLQMNSLKPEDTEVYYCAAPFPIRSGESWRTDLGYDYWGQGTQVTVSS	low polyreactivity
QVQLVESGGGLVQEGGSLRLSCADSGFTSCDNDMGWYRQAPGKERELVAAISRGGSTNYADSVKGRFTISRDNAKNTFYLQMNSLKPEDSEVYYCATAAVTPVWYDYWGKGTQVTVSS	low polyreactivity
QVQLVESGGGLVQEGGSLRLSCASSGYTFPYYAMGWYRQAPGKERELVAAIRSGGGTNYADSVKGRFTISRDNAKNTVYLQMNSLKPEDTADYYCAKEWAGGLYDYWGQGTQVTVSS	low polyreactivity
QVQLVESGGGLVQEGGSLRLSCGASGSIFSCYAMGWYRQAPGKERELVAGITWSGGSTYYADSVKGRFTNSRDNAKNTVYLQMNSLKPEDTSVYYCAAKYYWYYSDSGIPLFDYWGQGTQVTVSS	low polyreactivity
QVQLVESGGGLVQEGGSLRLSCSASGRIFGSYAMGWNRPATGKERELVAAINSSGGRTYYADSVKGRFTISRDNAKNTVYLQMNSLKPDVTAVYYCNARRVYSQRYDYWGQGTQVTVSS	high polyreactivity
QVQLVESGGGLVQEGGSLRLSSAASGRTFGTNPMGWYRQAPGKERELVAAISTRDGSTYYADSVKGRFSISRDNAKNTVYLQMNSLKPEDTAVYYCNAVVRYYDWGYLDYDYWGQGTQVTVSS	low polyreactivity
QVQLVESGGGLVQEGGSLRLTCAASGRIFQRYAMGWYSPPPGKERELVAVITKRGGNTYYADSVKGRFTLSRDNAKNTVYLQMNSLKPEDTAVYYCATRSGRSTGDYWGQGTQVTVSS	high polyreactivity
QVQLVESGGGLVQEGGSLRLTCAASGRIFVYNAMGWYRQAPRKDRELVAAISWRGDGTYYADSVKGLFTISRDNAKITVYLQMNSLKPEDTAVYYCAADYVYYYHEYDYWGQGTQVTVSS	low polyreactivity
QVQLVESGGGLVQEGGSLRVSCAASGSTLIRNVMVRYRQAPGKERELVAVITYGVGSTYYADSVKGRFTISRDNAKNTVYLQMNSLKPEDTAVYYCNKDPLVFDYWGQGTQVTVSS	low polyreactivity
QVQLVESGGGLVQGGGSLRLSCAASGFIFDDNSMGWYRQAPGKERELVAAITSGGGSTYYADSVKGRFTISRDNAKNTVYLQMNSLKPEDTAVYYCNAVPSQHDEFDYWGQGTQVTVSS	low polyreactivity

Sequence	polyreactivity (PSR sort gate)
QVQLVESGGGLVQGGGSLRLSCAASGITFGDYAMGWYRQAPGKERELVAGINWSGDGTYYADSVKGRFTISRDNAQNTDYLQLNSLKPEDTAVYNCAAETFYDYGGYDYWGQGTQVTVSS	low polyreactivity
QVQLVESGGGLVQGGGSLRLSCAASGRNFKYNTMGWYRQAPGKERDLVAAISLSSGSGGGTRYADSVKGRFTISRDNAKNSVYLQMNSLKPEDSAVYYCAARHRYTNEYDYWGHGTQVTVSS	low polyreactivity
QVQLVESGGGLVQGGGSLRLSCAASGSIFTYNAIRSYRQAPGKERELVAAINTSGSTNYADSVKGRFTLSRDNAKNTVYLQMNSVKPEVTAVYYCAAGIVVTGYDYWGHGTQVTVSS	low polyreactivity
QVQLVESGGGLVQGGGSLSLSCAASGSNFWRYAMGWYRQAPGKEMELVAVISDRGCITYYADSVKGRFTISRDNAKNTVYLQMNSLKPEDTAVYYCNAVDSDRSDPSEYDYWGQGTQVTLSS	low polyreactivity
QVQLVESGGGLVQPGGSLRLSCAASGFIFLGYAMGWYRQAPGKERELVATITWRGGSTYYADSVKGRFTISRDNAKNTVYLQMNSLIPEDTADYYCAATRGWLHSFARDDHDYWGQGTQVTVSS	high polyreactivity
QVQLVESGGGLVQPGGSLRLSCAASGFIFSYYVMGWYRQAPGKERELVAAITTSGDSTYYADSVKGRFTISRDNAKNSVYLQMNSLKPEDTAVYYCNTVYRYRYYWGQGTHVTVSS	high polyreactivity
QVQLVESGGGLVQPGGSLRLSCAASGFTFYLYALGWYRQAPVKERELVASISSGGRTYYADSVKGRFTISRDNAKNTVYVQMNRLKPADTAVYYCAARRPAWYWSAYRYYSEMDYWGQGTQVTVSS	high polyreactivity
QVQLVESGGGLVQPGGSLRLSCAASGRIFYYYAMGWYRQAPGKERELVAAITWNGTSTYYADSVKGRFTISRDNAKNTVYLQMNSLKPEDTAVYYCAKSLRAYRHVIYGKPFYSWGQGTQVTVSS	low polyreactivity
QVQLVESGGGLVQPGGSLRLSCAASGSIFIVYAMGWYRQAPGQERELVAGISVRTGSTYYADSVKGRFTISRDNAKNTGYLQMNSLKPEDTAVYYCAAPGYTGLGRNYWGQGTQVTVSS	low polyreactivity
QVQLVESGGGLVQPGGSLRLSCAASGSIFPYYAKGWYRKAPGKERELVADITSSGGSTYYADSVMGRFTISRDNAKNTVYLQMNSLKPEDTAVYYCAADGAVVSSSRKFGYWGQGTQVTVSS	low polyreactivity
QVQLVESGGGLVQPGGSLRLSCAASGSIFTRNAMGWYRQAPGKERELVAAITKRGGSTYYADSVKGRFTISRDNAKNTVYLQMNSLKPEETAVYSCAADVYKYKHTQEYHVGRMDYWGQGTQVTVSS	low polyreactivity
QVQLVESGGGLVQPGGSLRLSCAASGSNFEPYAMGWYRQAPGKERELVAAISSGGSTNYADSVKGRFTISRDNAKNTVYLQMNSLKPEDTAVYFCAAAYYTVGWLFYDYWYPFAYYYWGQGTQVTVSS	low polyreactivity
QVQLVESGGGLVQPGGSLRLSCAASGSTFLVYAMGWYRQAPGKERELVAVIDNGGDTYYADSVKGRFTISRDNAKNTVYLPMNSMKPEDTEVYYCAADLSYLGYCEYDYWGQGTQVNVSS	low polyreactivity
QVQLVESGGGLVQPGGSLRLTCAAYGFIFGYNSMGWYSQAPGKERELVAAISSGGSTYYADSVNGLFTISRDNAKNTVYLQMNSVKPDDTAVYYCAVELGYPIQSDALWWDFEYWGQGTQVTVSS	low polyreactivity
QVQLVESGGGLVQPRGSLRLSCAASGSILGHYAMGWYRQAPGKERELVAAISWRGGTTYYADSVKGRFTISRDNAKNTVYLQMNSLKPEDTAVYYCNADVWVYPYDYWGQGTQVTVSS	low polyreactivity
QVQLVESGGGLVQSGGSHPLSCAASGRTFYSYAMRGYRQAPGKDSEFVAAIRRCGSSTYYADSVKGRFTISRDNAKNTVYLQMNSLKPEDTAVYYCNAAPYIYPIRGNYWGQGTQETVSS	high polyreactivity
QVQLVESGGGLVQSGGSLRLSCAASGCIFSKNAMGWYRPAPGKERELVAAISWSGGSTSYADSVKGRFTISRDNAKNTVYLQMNSLKPEDTAVYYCARVGAIPSRYGYWGQGTQVTVSS	high polyreactivity
QVQLVESGGGLVQSGGSLRLSCAASGFIFEAYAMGWYRQAPGKEMELVAAISSGGSTKYADSVKGRFTISRDNAKNSVYLQMNSLKPEDTAVYYCAKSSWTYGAYNYLGQGTQVTVSS	high polyreactivity
QVQLVESGGGLVQSGGSLRLSCAASGFTFRFYAMGWYSQAPGKEREMVAAITSSGGSTFYADSVKGRFTISRDNAKNTVYLQMNSLKPEDTAVYYCAASVGREVGWGQGTQVTVSS	high polyreactivity
QVQLVESGGGLVQSGGSLRLSCAASGFTLYYYAMGWYRQAPGKERELVARISGSSGRTYYADSVKGRFTISRDNAMNTFYLQMNSLKPEDTAVYFCAARYYTSATMDYWGQGTQVTVSS	high polyreactivity
QVQLVESGGGLVQSGGSLRLSCAASGIIFSRNAMGWYRQAPGKERELVAGITSSGGTTYYADSVKGRFTISRDNAKNTVYLQMNSLKPEDTAVYYCAAYSTQNYSYRRYYYWGQGTQVTVSS	high polyreactivity
